# Tested on: T1, Myotis lucifugus helper (Myotis lucifugus)
# T1 sequence: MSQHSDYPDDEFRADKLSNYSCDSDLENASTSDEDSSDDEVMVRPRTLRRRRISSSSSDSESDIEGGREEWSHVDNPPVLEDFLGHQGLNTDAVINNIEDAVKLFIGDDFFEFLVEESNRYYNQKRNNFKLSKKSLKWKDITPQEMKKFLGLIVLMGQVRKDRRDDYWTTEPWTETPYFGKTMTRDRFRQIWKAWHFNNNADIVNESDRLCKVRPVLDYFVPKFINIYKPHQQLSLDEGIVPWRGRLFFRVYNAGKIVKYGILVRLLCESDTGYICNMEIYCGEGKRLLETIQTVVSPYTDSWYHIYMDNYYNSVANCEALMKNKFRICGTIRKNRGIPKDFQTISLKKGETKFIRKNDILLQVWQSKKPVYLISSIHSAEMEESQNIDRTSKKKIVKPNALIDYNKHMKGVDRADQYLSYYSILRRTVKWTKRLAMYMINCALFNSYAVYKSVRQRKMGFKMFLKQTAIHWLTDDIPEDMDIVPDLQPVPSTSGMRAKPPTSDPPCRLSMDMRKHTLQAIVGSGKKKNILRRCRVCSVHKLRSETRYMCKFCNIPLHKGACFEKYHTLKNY
# Assay: cell_activity
# Conditions: HEK293, GFP+ cells day 21 relative to day 2; indirect evidence of end recognition
substance,measurement,value
Myotis lucifugus donor ends (left/right),activity (% integration efficiency),3.5
